The Kd is the free concentration of one partner at which half of the binding sites on the other are occupied at equilibrium, for simple one-to-one binding. A low value points to higher affinity.

We go through two substances from publication doi:10.1101/2023.06.23.546255.

Assay [1] deals with _(FITC)…, fluorescently labeled high-affinity peptide. Description: fluorescence polarisation. (In general: In fluorescence polarisation assays a small probe gives low polarisation when free and higher when bound to something large.)
Assay [2] concerns the target chicken Tapasin (chTapasin), luminal domain (chicken (Gallus gallus)). Description: NMR chemical shift perturbation.
The target is the same in assay [3]. Description: SPR. A general note: Surface plasmon resonance follows binding to a sensor surface in real time, without labels.

On to “open B*37:01/chTapasin complex (empty) (from UniProt P61769 21-119)”, for which, in assay [1], the Kd was found to be 5.5 nM. This counts as single-digit nanomolar.
Regarding “open HLA-B*37:01 (G120C)/β2m (H31C), UV-irradiated (empty) (from UniProt P61769 21-119) (complex)”, the lifetime of the complex in assay [2] was more than 200 ms. This substance displayed a Kd in assay [3] of 1200 nM.
